The results in this text go back to article PMC7949152, “A resistant mutant of Plasmodium falciparum purine nucleoside phosphorylase uses wild-type neighbors to maintain parasite survival” (The Journal of Biological Chemistry, 2021).

For the data set, the system named is OC[C@H]1O[C@@H](n2cnc3c(O)ncnc32)[C@H](O)[C@@H]1O. Put plainly: Michaelis-Menten kinetics, xanthine oxidase-coupled assay (Km). Type of data set: biochemical, Plasmodium falciparum. The following applies: phosphate catalytic site.

Consider “Plasmodium falciparum purine nucleoside phosphorylase (PfPNP), native subunits (natPNPfus) (Plasmodium falciparum 3D7)”, for which the Km was found to be 5.4 µM.
